From paper PMC12557367, ““Precision on Two Wheels”–Structural Refinement of ^64Cu- and ^68Ga-Labeled Bicyclic Peptides Targeting Nectin‑4 for Improved Tumor Imaging: From Preclinical Development to First-in-Human Application” (Journal of Medicinal Chemistry, 2025)
Numbered stars: 1 amine (or outer) side, 2 acyl side, 3 side chain; on linkers, the order of the positions; unused ones are H or OH. Bridge positions count the residues as written; N and C are the ends. Square brackets hold non-standard residues; d marks the D form. * marks the point of attachment. (R)‑NODAGA = O=C(O)CN1CCN(CC(=O)O)CCN([C@H](CCC(=O)*)C(=O)O)CC1; 6FAM = O=C1OC2(c3ccc(O)cc3Oc3cc(O)ccc32)c2cc(C(=O)*)ccc21; DOTA = O=C(O)CN1CCN(CC(=O)O)CCN(CC(=O)*)CCN(CC(=O)O)CC1; TATA = O=C(CC[*:1])N1CN(C(=O)CC[*:2])CN(C(=O)CC[*:3])C1; Ser(et) = O-ethylserine, CCOC[C@H](N[*:1])C(=O)[*:2]; Mox = methoxinine, COCC[C@H](N[*:1])C(=O)[*:2]; 1Nal = N[C@@H](Cc1cccc2ccccc12)C(=O)O; 2Nal = N[C@@H](Cc1ccc2ccccc2c1)C(=O)O; Hyp = O=C(O)[C@@H]1C[C@@H](O)CN1; hArg = N=C(N)NCCCC[C@H](N)C(=O)O; Met(O) = CS(=O)CC[C@H](N)C(=O)O; SeMet = C[Se]CC[C@H](N)C(=O)O; Nle = CCCC[C@H](N)C(=O)O

T1: nectin-4 on intact HT-1376 cells (human (endogenous in HT-1376), UniProt Q96NY8 32-510)
T1 construct: also called cellular nectin-4
T1 sequence (looked up): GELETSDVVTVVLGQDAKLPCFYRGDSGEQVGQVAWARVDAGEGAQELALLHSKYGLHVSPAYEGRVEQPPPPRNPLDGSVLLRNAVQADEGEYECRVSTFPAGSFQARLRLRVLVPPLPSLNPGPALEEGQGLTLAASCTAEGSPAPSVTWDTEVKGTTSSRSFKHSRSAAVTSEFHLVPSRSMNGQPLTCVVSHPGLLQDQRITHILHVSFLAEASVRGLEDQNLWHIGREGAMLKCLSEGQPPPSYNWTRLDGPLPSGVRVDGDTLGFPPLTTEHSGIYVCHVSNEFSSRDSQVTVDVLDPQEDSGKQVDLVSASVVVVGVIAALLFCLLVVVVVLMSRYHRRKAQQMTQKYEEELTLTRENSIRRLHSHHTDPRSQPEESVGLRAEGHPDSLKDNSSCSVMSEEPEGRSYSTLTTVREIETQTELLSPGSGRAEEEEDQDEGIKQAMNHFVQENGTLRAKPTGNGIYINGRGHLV

T2: recombinant human nectin-4 (human, UniProt Q96NY8 32-349)
T2 construct: nectin-4, human, recombinant; also called complete extracellular domain of nectin-4; source: bought: R&D Systems (Catalog number 2659-N4)
T2 sequence (looked up): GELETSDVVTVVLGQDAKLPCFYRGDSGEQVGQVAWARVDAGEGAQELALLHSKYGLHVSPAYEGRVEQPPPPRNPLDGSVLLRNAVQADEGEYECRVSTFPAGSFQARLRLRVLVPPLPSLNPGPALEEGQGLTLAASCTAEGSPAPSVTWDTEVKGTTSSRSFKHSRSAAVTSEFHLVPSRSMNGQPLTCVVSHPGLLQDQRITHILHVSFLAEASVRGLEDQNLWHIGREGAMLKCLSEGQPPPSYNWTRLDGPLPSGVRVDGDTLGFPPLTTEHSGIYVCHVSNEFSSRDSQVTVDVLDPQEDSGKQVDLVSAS

B1: 6 (peptide)
chain: {(R)‑NODAGA}-CP[1Nal][dD]C[Ser(et)][hArg]DWSTP[Hyp]WC-NH2
modifications: linker 1-5-15 via TATA
SMILES: CCOC[C@@H]1NC(=O)[C@@H]2CSCCC(=O)N3CN(CN(C3)C(=O)CCSC[C@H](NC(=O)CC[C@H](C(=O)O)N3CCN(CC(=O)O)CCN(CC(=O)O)CC3)C(=O)N3CCC[C@H]3C(=O)N[C@@H](Cc3cccc4ccccc34)C(=O)N[C@H](CC(=O)O)C(=O)N2)C(=O)CCSC[C@@H](C(N)=O)NC(=O)[C@H](Cc2c[nH]c3ccccc23)NC(=O)[C@@H]2C[C@@H](O)CN2C(=O)[C@@H]2CCCN2C(=O)[C@H]([C@@H](C)O)NC(=O)[C@H](CO)NC(=O)[C@H](Cc2c[nH]c3ccccc23)NC(=O)[C@H](CC(=O)O)NC(=O)[C@H](CCCCNC(=N)N)NC1=O

Target: T1, nectin-4 on intact HT-1376 cells
Test: radioligand binding; intact HT-1376 cells, 10 nM radioligand, 37 °C, 1 h, PBS wash; nonspecific binding with 1 µM 1d (3a for [68Ga]Ga-8d); specific binding in fmol/mg protein
Settings: one partner purified

Binder	specific cell binding at 10 nM radioligand
{(R)‑NODAGA}-CP[1Nal][dD]CM[hArg]DWSTP[Hyp]WC-NH2 (linker 1-5-15 via TATA; also: NODAGA complexed with 68Ga) [[68Ga]Ga-1e]	474 fmol/mg
{(R)‑NODAGA}-CP[1Nal][dD]CM[hArg]DWSTP[Hyp]WC-NH2 (linker 1-5-15 via TATA; also: NODAGA complexed with 64Cu) [[64Cu]Cu-1e]	159 fmol/mg
{(R)‑NODAGA}-CP[2Nal][dD]CMRDWSTP[Hyp]WC-NH2 (linker 1-5-15 via TATA; also: NODAGA complexed with 64Cu) [[64Cu]Cu-8a]	15.6 fmol/mg
{DOTA}-CP[2Nal][dD]CMRDWSTP[Hyp]WC-NH2 (linker 1-5-15 via TATA; also: DOTA complexed with 68Ga) [[68Ga]Ga-8c]	38.4 fmol/mg

Target: T2, recombinant human nectin-4
Test: SPR; Biacore T200, human nectin-4 immobilised on CM5 chip by amine coupling, peptides as analytes, single-cycle kinetics, 25 °C, HBS-P+ pH 7.4, no DMSO, 1:1 binding model
Settings: both partners purified

Binder	Kd	koff	kon
{(R)‑NODAGA}-CP[1Nal][dD]C[Nle][hArg]DWSTP[Hyp]WC-NH2 (linker 1-5-15 via TATA) [3a]	1.31 nM	–	–
{DOTA}-CP[2Nal][dD]CMRDWSTP[Hyp]WC-OH (linker 1-5-15 via TATA) [8d (N188)]	236 nM	0.00881 s⁻¹	40000 M⁻¹ s⁻¹
{(R)‑NODAGA}-CP[1Nal][dD]CM[hArg]DWSTP[Hyp]WC-NH2 (linker 1-5-15 via TATA; also: NODAGA complexed with natGa) [natGa-1e]	2.39 nM	0.0026 s⁻¹	1.1e+06 M⁻¹ s⁻¹
{(R)‑NODAGA}-CP[2Nal][dD]CMRDWSTP[Hyp]WC-NH2 (linker 1-5-15 via TATA) [8a]	63 nM	0.0433 s⁻¹	680000 M⁻¹ s⁻¹
{(R)‑NODAGA}-CP[2Nal][dD]CM[hArg]DWSTP[Hyp]WC-NH2 (linker 1-5-15 via TATA) [9]	4.58 nM	0.0765 s⁻¹	1.69e+07 M⁻¹ s⁻¹
{DOTA}-CP[1Nal][dD]CM[hArg]DWSTP[Hyp]WC-NH2 (linker 1-5-15 via TATA) [1f]	1.31 nM	0.0115 s⁻¹	8.76e+06 M⁻¹ s⁻¹
{DOTA}-CP[2Nal][dD]CMRDWSTP[Hyp]WC-NH2 (linker 1-5-15 via TATA) [8c]	127 nM	0.00239 s⁻¹	20000 M⁻¹ s⁻¹
{(R)‑NODAGA}-CP[1Nal][dD]CMRDWSTP[Hyp]WC-NH2 (linker 1-5-15 via TATA) [10]	2.51 nM	0.00278 s⁻¹	1.11e+06 M⁻¹ s⁻¹
B1	6.29 nM	0.0247 s⁻¹	3.86e+06 M⁻¹ s⁻¹
{(R)‑NODAGA}-CP[1Nal][dD]CM[hArg]DWSTP[Hyp]WC-NH2 (linker 1-5-15 via TATA) [1e]	3.6 nM	0.00434 s⁻¹	1.21e+06 M⁻¹ s⁻¹

Target: T1, nectin-4 on intact HT-1376 cells
Test: radioligand binding; saturation binding on intact HT-1376 cells, 10 radioligand concentrations (0.156-80 or 0.321-160 nM), 37 °C, 1 h, PBS wash; nonspecific with 1 µM 1d; apparent (covers binding and putative internalisation)
Settings: one partner purified

Binder	Kd
{DOTA}-CP[2Nal][dD]CMRDWSTP[Hyp]WC-OH (linker 1-5-15 via TATA; also: DOTA complexed with 68Ga) [[68Ga]Ga-8d ([68Ga]Ga-N188)]	222 nM
{(R)‑NODAGA}-CP[1Nal][dD]CM[hArg]DWSTP[Hyp]WC-NH2 (linker 1-5-15 via TATA; also: NODAGA complexed with 68Ga) [[68Ga]Ga-1e]	8.7 nM
{(R)‑NODAGA}-CP[1Nal][dD]CM[hArg]DWSTP[Hyp]WC-NH2 (linker 1-5-15 via TATA; also: NODAGA complexed with 64Cu) [[64Cu]Cu-1e]	7.15 nM
{(R)‑NODAGA}-CP[2Nal][dD]CMRDWSTP[Hyp]WC-NH2 (linker 1-5-15 via TATA; also: NODAGA complexed with 64Cu) [[64Cu]Cu-8a]	51.7 nM
{(R)‑NODAGA}-CP[1Nal][dD]C[Mox][hArg]DWSTP[Hyp]WC-NH2 (linker 1-5-15 via TATA; also: NODAGA complexed with 68Ga) [[68Ga]Ga-4]	13.1 nM
{DOTA}-CP[2Nal][dD]CMRDWSTP[Hyp]WC-NH2 (linker 1-5-15 via TATA; also: DOTA complexed with 68Ga) [[68Ga]Ga-8c]	103 nM

Target: T2, recombinant human nectin-4
Test: fluorescence polarisation; fluorescence anisotropy, direct binding: 1 nM fluorescent probe, 11 to 13 concentrations of nectin-4 (e.g. 0.06-250 nM), 37 °C, 1200 s, HEPES buffer 20 mM pH 7.4, 0.01% Tween20, NaCl, 1% DMSO; Morrison equation
Settings: both partners purified

Binder	Kd
6FAM-CP[1Nal][dD]CM[hArg]DWSTP[Hyp]WC-NH2 (linker 1-5-15 via TATA) [1b]	0.17 ± 0.01 nM
6FAM-CP[2Nal][dD]CMRDWSTP[Hyp]WC-NH2 (linker 1-5-15 via TATA) [8b]	1.38 ± 0.06 nM

Target: T2, recombinant human nectin-4
Test: fluorescence polarisation; fluorescence anisotropy, competition: 1 nM probe 1a, 20 nM nectin-4, 10 concentrations of nonlabeled peptide, 37 °C, HEPES buffer pH 7.4, 1% DMSO; IC50 transformed into Kd (Nikolovska-Coleska equation, Kd of 1a 0.94 nM)
Settings: both partners purified

Binder	Kd
{(R)‑NODAGA}-CP[1Nal][dD]C[Met(O)][hArg]DWSTP[Hyp]WC-NH2 (linker 1-5-15 via TATA; also: Met(O): mixture of diastereomers) [2]	25 nM
Ac-CP[1Nal][dD]CM[hArg]DWSTP[Hyp]WC-NH2 (linker 1-5-15 via TATA) [1d (BCY8126)]	0.73 nM
{(R)‑NODAGA}-CP[1Nal][dD]C[Nle][hArg]DWSTP[Hyp]WC-NH2 (linker 1-5-15 via TATA) [3a]	1.04 nM
{(R)‑NODAGA}-CP[1Nal][dD]C[Nle][hArg]DWSTP[Hyp]WC-NH2 (linker 1-5-15 via TATA; also: NODAGA complexed with natCu) [natCu-3a]	1.22 nM
{DOTA}-CP[2Nal][dD]CMRDWSTP[Hyp]WC-OH (linker 1-5-15 via TATA) [8d (N188)]	191 nM
{(R)‑NODAGA}-CP[1Nal][dD]CM[hArg]DWSTP[Hyp]WC-NH2 (linker 1-5-15 via TATA; also: NODAGA complexed with natGa) [natGa-1e]	4.47 nM
{(R)‑NODAGA}-CP[2Nal][dD]CMRDWSTP[Hyp]WC-NH2 (linker 1-5-15 via TATA) [8a]	21 nM
H-CP[1Nal][dD]CM[hArg]DWSTP[Hyp]WC-NH2 (linker 1-5-15 via TATA) [1c]	1.51 nM
{(R)‑NODAGA}-CP[2Nal][dD]CM[hArg]DWSTP[Hyp]WC-NH2 (linker 1-5-15 via TATA) [9]	11.5 nM
{(R)‑NODAGA}-CP[1Nal][dD]CM[hArg]DWSTP[Hyp]WC-NH2 (linker 1-5-15 via TATA; also: NODAGA complexed with natCu) [natCu-1e]	0.23 nM
Ac-CP[1Nal][dD]C[Nle][hArg]DWSTP[Hyp]WC-NH2 (linker 1-5-15 via TATA) [3b]	0.58 nM
{(R)‑NODAGA}-CP[1Nal][dD]C[SeMet][hArg]DWSTP[Hyp]WC-NH2 (linker 1-5-15 via TATA) [5]	1.37 nM
{DOTA}-CP[1Nal][dD]CM[hArg]DWSTP[Hyp]WC-NH2 (linker 1-5-15 via TATA) [1f]	7.22 nM
{DOTA}-CP[2Nal][dD]CMRDWSTP[Hyp]WC-NH2 (linker 1-5-15 via TATA) [8c]	149 nM
{(R)‑NODAGA}-CP[1Nal][dD]CMRDWSTP[Hyp]WC-NH2 (linker 1-5-15 via TATA) [10]	0.61 nM
B1	16.4 nM
{(R)‑NODAGA}-CP[1Nal][dD]CM[hArg]DWSTP[Hyp]WC-NH2 (linker 1-5-15 via TATA) [1e]	0.77 nM
